Test results: PMC2120792

What was measured:
[1] = molecular target: recombinant human plakoglobin, complete (pQPg) (human) (UniProt P14923); assay: ELISA
[2] = molecular target: SyPg(234), synaptophysin-plakoglobin chimera truncated after plakoglobin residue 234 (rat | human) (UniProt P07825); assay: co-IP
[3] = molecular target: SyPg(580), synaptophysin-plakoglobin chimera truncated after plakoglobin residue 580 (rat | human) (UniProt P07825); assay: co-IP

UniProt P14923, sequence (P14923 whole entry, the tested form may be a part): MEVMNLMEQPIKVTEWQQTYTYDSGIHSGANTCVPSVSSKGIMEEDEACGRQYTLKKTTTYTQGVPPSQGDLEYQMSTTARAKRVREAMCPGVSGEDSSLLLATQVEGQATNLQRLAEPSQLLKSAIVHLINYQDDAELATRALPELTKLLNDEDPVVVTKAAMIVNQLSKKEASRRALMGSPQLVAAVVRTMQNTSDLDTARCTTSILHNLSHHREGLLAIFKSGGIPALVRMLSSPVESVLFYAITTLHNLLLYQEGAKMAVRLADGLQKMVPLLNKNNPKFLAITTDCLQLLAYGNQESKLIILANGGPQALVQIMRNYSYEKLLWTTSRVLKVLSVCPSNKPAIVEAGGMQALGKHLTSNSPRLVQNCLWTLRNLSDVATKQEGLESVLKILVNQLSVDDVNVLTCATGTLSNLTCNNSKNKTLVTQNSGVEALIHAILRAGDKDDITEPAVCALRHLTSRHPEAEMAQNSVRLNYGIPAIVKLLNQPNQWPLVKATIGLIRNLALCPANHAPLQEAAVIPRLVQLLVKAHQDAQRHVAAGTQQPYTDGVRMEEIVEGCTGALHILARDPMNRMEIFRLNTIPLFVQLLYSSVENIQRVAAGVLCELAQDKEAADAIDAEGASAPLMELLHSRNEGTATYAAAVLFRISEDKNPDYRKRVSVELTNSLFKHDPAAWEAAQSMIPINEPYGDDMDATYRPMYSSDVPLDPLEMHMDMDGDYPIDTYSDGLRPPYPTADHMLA

| fold weaker binding than HCDg [1] | Dsg coprecipitated relative to SyPg (fraction of that with SyPg) [2] | Dsg coprecipitated relative to SyPg (fraction of that with SyPg) [3] | Substance |
| --- | --- | --- | --- |
| 2 fold |  |  | HCDc, his-tagged cadherin tail with the IA subdomain and C-domain of bovine Dsc1 (domain or fragment) |
| 5 fold |  |  | HCUv, his-tagged cadherin tail with the IA subdomain of bovine Dsc1 and the C-subdomain of murine E-cadherin |
|  | < 0.33 | < 0.33 | endogenous desmoglein (Dsg) (from UniProt Q14126 50-1118) (natural protein) |
